We go through five molecules from publication PMC5040351 (Arteriosclerosis, thrombosis, and vascular biology, 2016).

The target in test [1] is HA-tagged calnexin with deletion of the lumenal repeat segment (CNXΔ276-409) (UniProt P27824). Description: co-IP.
Test [2] has as its target ABCA1-FLAG (ATP-Binding Cassette A1 cholesterol transporter, FLAG-tagged) (UniProt O95477). Put plainly: co-IP.
The target in test [3] is endogenous calnexin (CNX) (human (endogenous in HEK293T and HeLa)) (UniProt P27824). Description: co-IP.
Test [4] addresses myristoylated NefSF2 protein (HIV-1 SF2, UniProt P03407 1-210, myristoylated). Description: SPR.

A word on the Kd: it is the equilibrium constant for the complex coming apart. One may read the koff as the rate constant with which the complex falls apart. As a reminder, the kon is the second-order rate constant of association.

In test [1], “HIV-1 Nef expressed from the Nef_(cons) vector (wild type) (natural protein)” had a percent reduction of co-precipitated Nef against WT CNX of 40%.

The molecule “Nef K4,7A (double lysine mutant of Nef_(cons)) (natural protein)” showed a percent reduction of co-precipitated Nef against wild-type Nef in test [2] of 30%.

Molecule “Nef K4A (single lysine mutant of Nef_(cons)) (natural protein)” had a percent reduction of co-precipitated Nef against WT Nef in test [3] of 80%.

“Nef K7A (single lysine mutant of Nef_(cons)) (natural protein)” displayed a percent reduction of co-precipitated Nef against WT Nef in test [3] of 70%.

B1: cytoplasmic tail of calnexin (CNX-CT), recombinant (domain or fragment, UniProt P27824 503-592, looked up)
chain: CSGKKQTSGMEYKKTDAPQPDVKEEEEEKEEEKDKGDEEEEGEEKLEEKQKSDAEEDGGTVSQEEEDRKPKAEEDEILNRSPRNRKPRRE
Regarding B1, in test [4], the Kd turned out to be 9.4 nM, the koff is 0.00857 s⁻¹ and the kon was 908000 M⁻¹ s⁻¹.
